The record followed here is article PMC12891897, “Blocking TRIM47-mediated HNF4α degradation suppresses hepatocellular carcinoma progression” (Acta Pharmaceutica Sinica. B, 2025).

The target of test [1] is V5-tagged HNF4α (hepatocyte nuclear factor 4alpha), full length (amino acids 1–474), P41235-1. The test is described as follows: Co-IP (IP-Flag) and Western blotting, V5 band quantified. Particulars: HEK293T cells, transfected for 48 h; parent: 1.
The target in test [2] is Flag-tagged TRIM47 (tripartite motif 47), full length (amino acids 1–638), Q96LD4-1. The description is as above. Particulars: HEK293T cells, co-transfected for 48 h; parent: 1.
Flag-tagged TRIM47 (tripartite motif 47), full length (amino acids 1–638), Q96LD4-1, sequence (Q96LD4 whole entry, the tested form may be a part): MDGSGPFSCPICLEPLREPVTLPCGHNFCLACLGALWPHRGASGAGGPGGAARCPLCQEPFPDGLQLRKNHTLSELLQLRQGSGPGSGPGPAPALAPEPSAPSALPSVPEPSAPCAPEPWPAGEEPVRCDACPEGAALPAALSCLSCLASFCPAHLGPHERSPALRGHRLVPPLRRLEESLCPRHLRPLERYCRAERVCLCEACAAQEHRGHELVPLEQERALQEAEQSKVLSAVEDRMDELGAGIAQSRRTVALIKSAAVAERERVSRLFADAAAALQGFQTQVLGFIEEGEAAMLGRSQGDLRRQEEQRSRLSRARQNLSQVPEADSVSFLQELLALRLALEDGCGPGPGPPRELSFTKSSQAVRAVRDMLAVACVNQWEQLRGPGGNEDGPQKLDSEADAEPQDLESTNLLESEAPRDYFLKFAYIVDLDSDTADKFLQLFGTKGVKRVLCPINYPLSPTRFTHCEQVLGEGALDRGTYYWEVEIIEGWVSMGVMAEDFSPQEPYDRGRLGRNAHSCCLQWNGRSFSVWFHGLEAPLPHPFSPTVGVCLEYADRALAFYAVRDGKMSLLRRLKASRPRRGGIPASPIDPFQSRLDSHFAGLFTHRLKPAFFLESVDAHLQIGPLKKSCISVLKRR

On to “Flag-tagged TRIM47 (tripartite motif 47), full length (amino acids 1–638) (from UniProt Q96LD4-1) K534A”, for which the ratio to parent in test [1] turned out to be 0.79 Fold.

For the substance “Flag-tagged TRIM47 (tripartite motif 47), full length (amino acids 1–638) (from UniProt Q96LD4-1) K534A; K600A”, the ratio to parent in test [1] was 0.49 Fold.

Take “Flag-tagged TRIM47 (tripartite motif 47), full length (amino acids 1–638) (from UniProt Q96LD4-1) K600A”: the ratio to parent in test [1] came to 0.83 Fold.

In the case of “V5-tagged HNF4α (hepatocyte nuclear factor 4alpha), full length (amino acids 1–474) (from UniProt P41235-1) E353A”, in test [2], the ratio to parent amounted to 0.38 Fold.

On to “V5-tagged HNF4α (hepatocyte nuclear factor 4alpha), full length (amino acids 1–474) (from UniProt P41235-1) K342A”, for which, in test [2], the ratio to parent was found to be 0.56 Fold.

For “V5-tagged HNF4α (hepatocyte nuclear factor 4alpha), full length (amino acids 1–474) (from UniProt P41235-1) K342A; W349A; E353A”, the ratio to parent in test [2] was 0.23 Fold.

In the case of “V5-tagged HNF4α (hepatocyte nuclear factor 4alpha), full length (amino acids 1–474) (from UniProt P41235-1) W349A”, in test [2], the ratio to parent was determined as 0.49 Fold.
